Patent US10087225B2, “Formulation of MK2 inhibitor peptides” (MOERAE MATRIX, INC., priority 2015, dated 2018)

How the values were obtained:
Experiment in all cases: Kinase Profiling Assay
Type in all cases: biochemical
Settings in all cases: for % activity: 100 μM
JAK2(h) = JAK2(h) (Homo sapiens, UniProt O60674)
IGF-1R(h), activated = IGF-1R(h), activated (Homo sapiens, UniProt P08069)
Met(Y1248C)(h) = Met(Y1248C)(h) (Homo sapiens, UniProt P08581, Y1230C)
ULK3(h) = biological target: T1, ULK3(h) (Homo sapiens, UniProt Q6PHR2)
T1 sequence (Q6PHR2 1-472): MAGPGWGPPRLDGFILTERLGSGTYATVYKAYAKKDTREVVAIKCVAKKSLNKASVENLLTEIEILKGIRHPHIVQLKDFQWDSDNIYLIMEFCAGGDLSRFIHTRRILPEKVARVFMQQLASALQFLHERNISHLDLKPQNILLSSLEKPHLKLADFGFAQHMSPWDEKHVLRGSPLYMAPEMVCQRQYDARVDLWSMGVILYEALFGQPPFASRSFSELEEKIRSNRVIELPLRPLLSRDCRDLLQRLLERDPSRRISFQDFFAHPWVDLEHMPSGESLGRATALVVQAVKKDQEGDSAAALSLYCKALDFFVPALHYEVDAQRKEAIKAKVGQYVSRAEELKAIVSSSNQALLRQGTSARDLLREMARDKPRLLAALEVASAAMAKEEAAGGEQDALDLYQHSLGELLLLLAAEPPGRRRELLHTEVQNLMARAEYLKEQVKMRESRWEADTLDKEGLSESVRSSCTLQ

CLK3(h) = CLK3(h) (Homo sapiens, UniProt P49761)
Sequence of CLK3(h) (P49761 whole entry): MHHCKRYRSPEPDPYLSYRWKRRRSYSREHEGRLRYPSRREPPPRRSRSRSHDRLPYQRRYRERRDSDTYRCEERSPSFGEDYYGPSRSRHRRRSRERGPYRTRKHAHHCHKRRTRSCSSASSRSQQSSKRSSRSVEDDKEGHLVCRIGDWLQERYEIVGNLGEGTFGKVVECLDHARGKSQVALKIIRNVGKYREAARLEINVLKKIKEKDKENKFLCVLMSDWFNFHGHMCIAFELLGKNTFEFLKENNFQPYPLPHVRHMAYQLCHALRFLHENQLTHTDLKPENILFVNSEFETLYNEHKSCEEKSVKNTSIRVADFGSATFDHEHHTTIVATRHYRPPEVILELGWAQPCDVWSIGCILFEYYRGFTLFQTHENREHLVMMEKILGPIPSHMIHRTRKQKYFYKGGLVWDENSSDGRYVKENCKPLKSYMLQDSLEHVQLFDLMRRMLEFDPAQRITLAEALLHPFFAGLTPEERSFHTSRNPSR

MSSK1(h) = MSSK1(h) (Homo sapiens, UniProt Q9UPE1)
Itk(h) = biological target: T2, Itk(h) (Homo sapiens, UniProt Q08881)
T2 sequence (Q08881 1-620): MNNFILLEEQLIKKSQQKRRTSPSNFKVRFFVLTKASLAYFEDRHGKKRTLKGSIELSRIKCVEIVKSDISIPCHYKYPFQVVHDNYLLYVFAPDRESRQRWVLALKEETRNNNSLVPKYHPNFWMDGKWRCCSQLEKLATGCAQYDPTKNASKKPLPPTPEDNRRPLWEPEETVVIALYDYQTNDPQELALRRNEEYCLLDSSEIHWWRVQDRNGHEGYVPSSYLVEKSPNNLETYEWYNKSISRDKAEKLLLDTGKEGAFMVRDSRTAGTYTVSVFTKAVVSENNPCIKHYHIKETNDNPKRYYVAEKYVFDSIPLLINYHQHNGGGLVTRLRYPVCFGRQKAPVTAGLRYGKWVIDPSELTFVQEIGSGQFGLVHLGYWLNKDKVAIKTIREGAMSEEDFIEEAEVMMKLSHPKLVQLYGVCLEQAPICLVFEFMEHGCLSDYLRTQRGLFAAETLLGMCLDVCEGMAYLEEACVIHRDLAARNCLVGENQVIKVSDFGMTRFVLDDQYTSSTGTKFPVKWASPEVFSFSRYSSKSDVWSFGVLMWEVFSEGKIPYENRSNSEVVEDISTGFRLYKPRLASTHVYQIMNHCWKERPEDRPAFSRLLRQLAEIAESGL

Ret(h) = Ret(h) (Homo sapiens, UniProt P07949)
BRK(h) = BRK(h) (Homo sapiens, UniProt Q13882)
Sequence of BRK(h) (Q13882 whole entry): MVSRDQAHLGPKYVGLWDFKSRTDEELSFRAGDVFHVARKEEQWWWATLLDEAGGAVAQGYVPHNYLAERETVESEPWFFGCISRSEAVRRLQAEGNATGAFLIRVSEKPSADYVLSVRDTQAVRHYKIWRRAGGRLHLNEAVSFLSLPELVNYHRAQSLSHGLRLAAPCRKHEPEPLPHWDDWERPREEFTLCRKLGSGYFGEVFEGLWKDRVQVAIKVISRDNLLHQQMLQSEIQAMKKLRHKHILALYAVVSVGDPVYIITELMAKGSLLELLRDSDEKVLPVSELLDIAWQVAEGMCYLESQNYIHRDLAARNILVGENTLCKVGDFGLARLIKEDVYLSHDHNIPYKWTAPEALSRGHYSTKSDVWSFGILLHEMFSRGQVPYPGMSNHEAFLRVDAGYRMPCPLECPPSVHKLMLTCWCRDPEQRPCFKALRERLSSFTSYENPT

IRR(h) = IRR(h) (Homo sapiens, UniProt P14616)
Sequence of IRR(h) (P14616 27-1297): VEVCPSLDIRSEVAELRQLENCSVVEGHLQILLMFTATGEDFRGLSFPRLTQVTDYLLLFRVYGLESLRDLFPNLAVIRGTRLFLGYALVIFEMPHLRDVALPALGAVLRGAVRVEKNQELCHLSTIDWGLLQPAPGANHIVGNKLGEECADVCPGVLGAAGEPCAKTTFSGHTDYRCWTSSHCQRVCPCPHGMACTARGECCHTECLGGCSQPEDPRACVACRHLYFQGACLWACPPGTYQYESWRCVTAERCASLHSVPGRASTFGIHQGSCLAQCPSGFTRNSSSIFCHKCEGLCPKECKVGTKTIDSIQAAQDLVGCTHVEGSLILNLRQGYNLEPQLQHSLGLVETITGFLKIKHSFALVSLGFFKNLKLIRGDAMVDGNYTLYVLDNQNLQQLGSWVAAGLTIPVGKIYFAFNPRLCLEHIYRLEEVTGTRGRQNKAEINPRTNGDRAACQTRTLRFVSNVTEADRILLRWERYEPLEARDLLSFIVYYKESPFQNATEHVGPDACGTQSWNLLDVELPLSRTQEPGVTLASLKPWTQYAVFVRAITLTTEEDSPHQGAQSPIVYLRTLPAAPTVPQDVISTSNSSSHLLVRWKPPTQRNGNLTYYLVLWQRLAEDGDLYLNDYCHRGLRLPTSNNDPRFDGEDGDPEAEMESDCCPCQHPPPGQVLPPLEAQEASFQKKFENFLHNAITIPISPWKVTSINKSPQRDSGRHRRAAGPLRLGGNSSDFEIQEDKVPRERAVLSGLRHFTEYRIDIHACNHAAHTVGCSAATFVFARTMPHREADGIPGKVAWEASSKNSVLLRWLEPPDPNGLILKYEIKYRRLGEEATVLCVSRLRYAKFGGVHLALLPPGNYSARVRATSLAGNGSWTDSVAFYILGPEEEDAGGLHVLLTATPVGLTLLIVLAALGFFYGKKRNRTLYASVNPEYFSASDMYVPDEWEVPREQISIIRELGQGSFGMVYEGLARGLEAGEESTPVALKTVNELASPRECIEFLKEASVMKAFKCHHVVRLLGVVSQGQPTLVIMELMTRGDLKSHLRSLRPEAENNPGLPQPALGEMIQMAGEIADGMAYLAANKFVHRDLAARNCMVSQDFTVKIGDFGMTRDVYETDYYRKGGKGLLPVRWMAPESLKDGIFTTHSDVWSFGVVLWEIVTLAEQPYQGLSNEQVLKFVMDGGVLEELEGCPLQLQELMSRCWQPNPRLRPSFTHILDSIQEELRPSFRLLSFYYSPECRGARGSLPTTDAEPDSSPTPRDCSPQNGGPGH

WNK3(h) = WNK3(h) (Homo sapiens, UniProt Q9BYP7)
LOK(h) = LOK(h) (Homo sapiens, UniProt O94804)
CK2(h) = CK2(h) (Homo sapiens, UniProt P68400)
Sequence of CK2(h) (P68400 whole entry): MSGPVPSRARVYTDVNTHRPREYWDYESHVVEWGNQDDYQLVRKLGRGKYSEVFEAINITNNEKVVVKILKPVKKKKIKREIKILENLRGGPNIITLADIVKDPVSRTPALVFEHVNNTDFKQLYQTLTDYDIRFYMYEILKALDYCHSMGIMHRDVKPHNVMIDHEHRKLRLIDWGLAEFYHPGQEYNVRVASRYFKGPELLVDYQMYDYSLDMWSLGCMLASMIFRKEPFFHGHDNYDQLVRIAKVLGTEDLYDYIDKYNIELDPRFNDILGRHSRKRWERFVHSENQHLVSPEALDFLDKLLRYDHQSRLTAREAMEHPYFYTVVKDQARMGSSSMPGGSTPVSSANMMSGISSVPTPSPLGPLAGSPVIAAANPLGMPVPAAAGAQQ
Sequence of CK2(h) (P67870 whole entry partner): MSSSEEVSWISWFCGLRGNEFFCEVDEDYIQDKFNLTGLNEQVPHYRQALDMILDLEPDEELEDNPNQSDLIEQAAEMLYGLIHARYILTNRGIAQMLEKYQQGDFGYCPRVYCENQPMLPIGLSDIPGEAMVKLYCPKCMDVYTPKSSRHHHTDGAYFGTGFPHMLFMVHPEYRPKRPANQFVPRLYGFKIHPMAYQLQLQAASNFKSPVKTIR

TSSK1(h) = biological target: T3, TSSK1(h) (Homo sapiens, UniProt Q9BXA7)
T3 sequence (Q9BXA7 1-367): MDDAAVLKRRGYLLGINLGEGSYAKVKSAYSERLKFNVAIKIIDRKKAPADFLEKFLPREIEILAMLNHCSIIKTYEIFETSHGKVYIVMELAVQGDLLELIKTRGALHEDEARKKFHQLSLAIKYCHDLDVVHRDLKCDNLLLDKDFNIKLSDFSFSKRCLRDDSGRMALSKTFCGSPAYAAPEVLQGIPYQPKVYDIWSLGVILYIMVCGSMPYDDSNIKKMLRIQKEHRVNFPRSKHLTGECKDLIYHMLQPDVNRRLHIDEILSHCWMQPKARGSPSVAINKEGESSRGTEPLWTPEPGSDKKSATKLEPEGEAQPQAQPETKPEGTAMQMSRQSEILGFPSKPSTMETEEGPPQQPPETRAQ

EphA4(h) = EphA4(h) (Homo sapiens, UniProt P54764)
Sequence of EphA4(h) (P54764 20-986): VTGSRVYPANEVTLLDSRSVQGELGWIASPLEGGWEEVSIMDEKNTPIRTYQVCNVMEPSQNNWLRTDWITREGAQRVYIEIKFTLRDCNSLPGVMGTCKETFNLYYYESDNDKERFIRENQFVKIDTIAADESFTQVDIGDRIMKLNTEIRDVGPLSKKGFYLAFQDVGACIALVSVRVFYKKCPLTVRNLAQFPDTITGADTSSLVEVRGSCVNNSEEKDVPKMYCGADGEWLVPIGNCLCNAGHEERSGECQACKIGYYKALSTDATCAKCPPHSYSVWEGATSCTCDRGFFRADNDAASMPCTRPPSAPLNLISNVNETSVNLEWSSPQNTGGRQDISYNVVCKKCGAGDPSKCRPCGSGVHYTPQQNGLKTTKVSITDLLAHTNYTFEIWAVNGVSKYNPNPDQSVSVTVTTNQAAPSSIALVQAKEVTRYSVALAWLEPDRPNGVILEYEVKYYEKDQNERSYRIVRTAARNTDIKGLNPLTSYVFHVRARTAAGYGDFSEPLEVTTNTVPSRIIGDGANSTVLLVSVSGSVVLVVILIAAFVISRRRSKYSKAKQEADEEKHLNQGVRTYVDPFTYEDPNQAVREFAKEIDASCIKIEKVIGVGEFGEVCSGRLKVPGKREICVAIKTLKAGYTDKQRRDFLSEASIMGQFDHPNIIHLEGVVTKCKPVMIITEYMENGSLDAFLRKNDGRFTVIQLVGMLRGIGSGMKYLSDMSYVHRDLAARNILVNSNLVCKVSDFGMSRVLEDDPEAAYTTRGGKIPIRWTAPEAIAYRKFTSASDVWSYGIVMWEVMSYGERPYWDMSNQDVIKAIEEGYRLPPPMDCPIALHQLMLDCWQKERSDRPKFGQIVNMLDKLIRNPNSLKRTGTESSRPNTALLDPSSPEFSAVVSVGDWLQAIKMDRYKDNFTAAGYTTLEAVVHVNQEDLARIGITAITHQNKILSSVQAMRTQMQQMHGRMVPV

CSK(h) = CSK(h) (Homo sapiens, UniProt P41240)
Sequence of CSK(h) (P41240 whole entry): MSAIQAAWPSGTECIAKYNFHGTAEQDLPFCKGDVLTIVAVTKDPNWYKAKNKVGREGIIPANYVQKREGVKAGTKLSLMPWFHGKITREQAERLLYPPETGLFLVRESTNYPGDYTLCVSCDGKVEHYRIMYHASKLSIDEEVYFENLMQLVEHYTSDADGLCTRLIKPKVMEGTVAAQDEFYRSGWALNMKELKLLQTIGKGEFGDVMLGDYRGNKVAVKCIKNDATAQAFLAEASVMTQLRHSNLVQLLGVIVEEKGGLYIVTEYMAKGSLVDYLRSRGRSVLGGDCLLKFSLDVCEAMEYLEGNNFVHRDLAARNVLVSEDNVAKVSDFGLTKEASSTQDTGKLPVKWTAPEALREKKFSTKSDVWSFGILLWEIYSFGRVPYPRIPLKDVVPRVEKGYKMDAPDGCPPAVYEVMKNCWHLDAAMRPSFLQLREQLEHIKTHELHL

MELK(h) = MELK(h) (Homo sapiens, UniProt Q14680)
Sequence of MELK(h) (Q14680 whole entry): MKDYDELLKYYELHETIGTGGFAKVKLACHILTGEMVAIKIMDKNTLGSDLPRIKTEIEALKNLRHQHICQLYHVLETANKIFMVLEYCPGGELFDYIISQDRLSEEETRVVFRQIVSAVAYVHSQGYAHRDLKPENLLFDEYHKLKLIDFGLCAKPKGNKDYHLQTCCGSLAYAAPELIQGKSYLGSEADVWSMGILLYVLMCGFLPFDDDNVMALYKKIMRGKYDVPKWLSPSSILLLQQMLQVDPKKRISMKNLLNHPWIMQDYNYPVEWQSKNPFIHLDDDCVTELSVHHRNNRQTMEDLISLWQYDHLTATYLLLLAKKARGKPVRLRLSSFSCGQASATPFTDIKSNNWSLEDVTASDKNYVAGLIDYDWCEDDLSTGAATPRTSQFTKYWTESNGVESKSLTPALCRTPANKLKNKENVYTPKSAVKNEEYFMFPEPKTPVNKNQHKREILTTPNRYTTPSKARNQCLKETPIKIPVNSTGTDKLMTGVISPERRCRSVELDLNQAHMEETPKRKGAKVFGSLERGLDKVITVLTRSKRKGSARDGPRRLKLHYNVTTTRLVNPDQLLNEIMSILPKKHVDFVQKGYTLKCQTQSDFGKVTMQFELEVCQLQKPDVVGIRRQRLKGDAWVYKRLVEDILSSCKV

YARAAARQARAKALNRQLGVA (Mammalian) [MMI-0200]
% activity (JAK2(h)): 131% | % activity (IGF-1R(h), activated): 94% | % activity (Met(Y1248C)(h)): 141% | % activity (ULK3(h)): 164% | % activity (CLK3(h)): 76% | % activity (MSSK1(h)): 100% | % activity (Itk(h)): 98% | % activity (Ret(h)): 96% | % activity (BRK(h)): 127% | % activity (IRR(h)): 69% | % activity (WNK3(h)): 97% | % activity (LOK(h)): 67% | % activity (CK2(h)): 83% | % activity (TSSK1(h)): 98% | % activity (EphA4(h)): 127% | % activity (CSK(h)): 33% | % activity (MELK(h)): 59%

H-YARAAARQARAKALARQLGVAA-OH [MMI-0100]
activity at 100 µM (JAK2(h)): 89% | activity at 100 µM (IGF-1R(h), activated): 126% | activity at 100 µM (Met(Y1248C)(h)): 77% | activity at 100 µM (ULK3(h)): 142% | activity at 100 µM (CLK3(h)): 108% | activity at 100 µM (MSSK1(h)): 82% | activity at 100 µM (Itk(h)): 99% | activity at 100 µM (Ret(h)): 108% | activity at 100 µM (BRK(h)): 70% | activity at 100 µM (IRR(h)): 85% | activity at 100 µM (WNK3(h)): 100% | activity at 100 µM (LOK(h)): 37% | activity at 100 µM (CK2(h)): 90% | activity at 100 µM (TSSK1(h)): 99% | activity at 100 µM (EphA4(h)): 110% | activity at 100 µM (CSK(h)): 70% | activity at 100 µM (MELK(h)): 74%

HRRIKAWLKKIKALARQLGVAA (Mammalian) [MMI-0500]
% activity (JAK2(h)): 49% | % activity (IGF-1R(h), activated): 45% | % activity (Met(Y1248C)(h)): 73% | % activity (ULK3(h)): 177% | % activity (CLK3(h)): 76% | % activity (MSSK1(h)): 22% | % activity (Itk(h)): 7% | % activity (Ret(h)): 174% | % activity (BRK(h)): 41% | % activity (IRR(h)): 10% | % activity (WNK3(h)): 9% | % activity (LOK(h)): 7% | % activity (CK2(h)): 93% | % activity (TSSK1(h)): 46% | % activity (EphA4(h)): 48% | % activity (CSK(h)): 2% | % activity (MELK(h)): 0%
